Data published in patent US20120231014A1.

Tests used:
[1] = target: PTPσ-Fc fusion protein (recombinant mouse PTPσ extracellular domain, short isoform, fused to Fc) (mouse) (UniProt B0V2N1); experiment: cell-free plate assay: PTPσ-Fc on protein A plates, increasing Ncn-AP, bound AP activity, Scatchard analysis
[2] = target: PTPσ-Fc fusion protein (recombinant mouse PTPσ extracellular domain, short isoform, fused to Fc) (mouse) (UniProt B0V2N1); experiment: cell-free plate assay: PTPσ-Fc on protein A plates, biotinylated aggrecan detected with streptavidin-AP, hyperbolic curve fit

| Substance | Kd [1] [nM] | Kd [2] [nM] |
| --- | --- | --- |
| Ncn-AP fusion protein (mouse neurocan amino acids 1-963 fused to placental alkaline phosphatase) (from UniProt P55066 23-963; P05187 23-511) | 11 |  |
| biotinylated purified aggrecan (bovine; Sigma) (from UniProt P13608 17-2364) |  | 19 |
